The assay addresses T1, Spermine synthase (Homo sapiens, UniProt P52788).
T1 chain: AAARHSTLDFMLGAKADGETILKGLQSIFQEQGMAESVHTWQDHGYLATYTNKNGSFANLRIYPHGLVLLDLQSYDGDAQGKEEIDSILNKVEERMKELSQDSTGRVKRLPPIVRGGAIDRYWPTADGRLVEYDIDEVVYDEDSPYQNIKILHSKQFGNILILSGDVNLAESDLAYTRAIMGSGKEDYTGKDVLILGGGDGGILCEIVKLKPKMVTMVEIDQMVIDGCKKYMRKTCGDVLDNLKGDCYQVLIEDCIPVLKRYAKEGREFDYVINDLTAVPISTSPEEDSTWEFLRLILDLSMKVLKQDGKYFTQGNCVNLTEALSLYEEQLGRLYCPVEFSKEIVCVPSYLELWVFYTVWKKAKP
Kind of assay: MST.

B1: Myosin Va GTD (protein)
chain: MENISPGQIIDEPIRPVNIPRKEKDFQGMLEYKKEDEQKLVKNLILELKPRGVAVNLIPGLPAYILFMCVRHADYLNDDQKVRSLLTSTINSIKKVLKKRGDDFETVSFWLSNTCRFLHCLKQYSGEEGFMKHNTSRQNEHCLTNFDLAEYRQVLSDLAIQIYQQLVRVLENILQPMIVSGMLEHETIQGVSGVKPTGLRKRTSSIADEGTYTLDSILRQLNSFHSVMCQHGMDPELIKQVVKQMFYIIGAITLNNLLLRKDMCSWSKGMQIRYNVSQLEEWLRDKNLMNSGAKETLEPLIQAAQLLQVKKKTDDDAEAICSMCNALTTAQIVKVLNLYTPVNEFEERVSVSFIRTIQMRLRDRKDSPQLLMDAKHIFPVTFPFNPSSLALETIQIPASLGLGFISRV
In general, Kd refers to the constant that tells how readily two partners part at equilibrium. Low readings indicate tighter binding, high ones weaker binding. In turn, B1 displayed a dissociation constant (Kd) of 3.5 µM.
